This experiment deals with T1, HCMV US28 (strain DB) on CHO-US28-A1 cells (Human cytomegalovirus, UniProt P69332, D170N/D19A).
T1 construct: expressed in transfected cells; host or cells: CHO-K1 (vector pCDH-EF1a-MCS)
Kind of experiment: FACS surface binding to CHO-US28-A1 cells. To be noted: CHO-US28-A1 cells compared with US28 negative control CHO cells. As for the experimental part: Plasmid construction was performed to create a US28-overexpressing cell line. The US28 sequence, identical to HCMV DB strain (Acc. Number: KT959235; SEQ ID No. 5 of this application), fused to a 6His tag at its C terminal part, was inserted into the pCDH-EF1a-MCS vector (Creative Biolabs, Shirley, NY 11967, USA). The plasmid construct was transfected to CHO-K1 cell line. The cells were collected 48 hours after transfection. The cell line was named as CHO-US28-A1-6His and its protein sequence (SEQ ID NO: 47) is the following:
Flowcytometry was used to analyze cell surface binding by the US28 antibodies. Upon cell harvest, adherent non-infected and US28 overexpressing or HCMV infected cells were washed three times with cell staining buffer (phosphate-buffered saline (PBS (Amresco, Cleveland, 44139, USA) added 0.5% BSA and 0.05% Sodium Azide (NaN3)). The cells were trypisinized and then resuspended in DMEM with 10% FBS to inhibit the action of trypsin. The cells were then pelleted at 400×g for 10 minutes and washed three times in cell staining buffer. Cell viability and cell concentration were measured by tryphan blue viability assay and a cell counter (Countess, Invitrogen, Carlsbad, CA 92008, USA). The cell suspension was adjusted to 1×10^6 cells/mL with ice-cold cell staining buffer. The cells were blocked in 1 ml 10% FBS or 1% BSA in PBS per 1×10^6 cells, vortexed briefly, and incubated for 10-30 minutes to eliminate non-specific staining. The cells were then stained with the respective antibodies and appropriate negative controls.
The primary antibodies used were I) 13-5G6-1D3 (50 μg/ml) as a positive control; II) Monovalent and Bivalent VUN100 ScFvs 1:1 (50 μg/ml); III) test antibodies for the specified subclones (1:5).
The primary antibodies used were I) 13-5G6-1D3 1:50 to 50 μg/ml; and II) Commercial US28 polyclonal antibody (50 μg/ml), III) Monovalent and Bivalent VUN100 ScFvs (50 μg/ml) and for certain experiments, the appropriate isotype controls were included.
In both cases (ECD1 and ECD3), the antibodies were added to the cells, vortexed and incubated on ice for 15 to 30 minutes up to overnight and washed twice with cell staining buffer to remove any unbound antibodies. In addition, the CMV Immediate Early Antigen (IE) Alexa488 Ab, MAB810X, 1:50 was included to verify HCMV infected cells in one of the experiments. Because it binds to an intracellular, HCMV encoded protein, it was added after permeabilizing the cells in 70% ethanol for 30 min on ice.
1:500-1:5000 in cell staining buffer of the appropriate fluorescent-conjugated appropriate secondary antibodies were added and incubated on ice for 15-20 min in the dark. The cells were washed three times to remove any unbound antibodies. The cells were then fixed with 0.5% paraformaldehyde (PFA) for 30 min on ice and resuspended in 200-500 μL cell staining buffer for final flow cytometric analysis using an Accuri C6 flow cytometry system (BD Biosciences, San Jose, CA 95131, USA). Data analyses were performed using FlowJo software v8.8 (Treestar Inc. Ashland, OR 97520, USA).
Background levels were determined using the respective secondary antibodies (anti-mFc-FITC for the subclones, or anti-myc-PE for the VUN100 molecules) with CHO cells and CHO-US28 cells. Given that US28 is expressed on the cell surface, the cells were non-permeabilised for these experiments.

Marks after values point to notes of the source that are not given here.

B1: 13-5G6-1D3 clone: antibody from hybridoma clone US28-13-5G6-1D3 (antibody)
heavy: EVKLVESGGGLVQPGGSLRLACATSGFTFTDYYMSWVRQPPGKALEWLGFIRSKANGYTTEYSASVKGRFTISRDNSQSILYLQMNTLRSEDSATYYCARDERRTAWLAYWGQGTLVTVSAAKTTPPSVYPLAPGSAAQTNSMVTLGCLVKGYFPEPVTVTWNSGSLSSGVHTFPAVLQSDLYTLSSSVTVPSSTWPSETVTCNVAHPASSTKVDKKIVPRDCGCKPCICTVPEVSSVFIFPPKPKDVLTITLTPKVTCVVVDISKDDPEVQFSWFVDDVEVHTAQTQPREEQFNSTFRSVSELPIMHQDWLNGKEFKCRVNSAAFPAPIEKTISKTKGRPKAPQVYTIPPPKEQMAKDKVSLTCMITDFFPEDITVEWQWNGQPAENYKNTQPIMDTDGSYFIYSKLNVQKSNWEAGNTFTCSVLHEGLHNHHTEKSLSHSPGK
light: DVLMTQTPLSLPVSLGDQASISCRSSQSIVHSNGNTYLDWYLQKPGQSPKLLIYKVSNRFSGVPDRFSGSGSGTDFTLKISRVEAEDLGVYYCFQGSHVPTWTFGGGTKLEIKRADAAPTVSIFPPSSEQLTSGGASVVCFLNNFYPKDINVKWKIDGSERQNGVLNSWTDQDSKDSTYSMSSTLTLTKDEYERHNSYTCEATHKTSTSPIVKSFNRNEC
Consider B1, for which the “Binding Specificity (ratio of surface binding)” value is reported as 15.2*.

For the origin of these results see patent publication US20250296984A1, “THERAPEUTIC AND DIAGNOSTIC AGENTS AND USES THEREOF” (priority 2022, published 2025).
